The target in test [1] is T1, blood platelet receptor glycoprotein Ib-IX-V complex (GPIb) (human, UniProt P07359 17-652; P13224 26-206; P14770 17-177; P40197 17-560).
T1 construct: whole, on cells; also called GPIb complex; GPIb receptor
Nature of the test: inhibition of static adhesion of human platelets to coated vWF-A1; grade B = IC50 between 1 µM and 10 µM. As to the method:
(§1) Platelet rich plasma was carefully transferred again to fresh containers, PGE1 (0.5 μg/ml, Sigma) was added and the suspension was allowed to rest for 5 min. This was followed by another centrifugation step for 15 min at 360 g. The supernatant was discarded and the cell pellets were carefully resuspended in tyrode buffer (NaCl, 137 mM (Sigma S-3014); KCl, 2.7 mM (Sigma P-9541); NaHCO₃,12 mM (Riedel deHaen 31437); NaH₂PO₄×2H₂O, 0.36 mM (Merck 6345); MgCl₂×6 H₂O, 1 mM (Sigma M-2670); Hepes, 10 mM (Sigma H-1016); glucose, 5.6 mM (Merck 8342); BSA, 0.1% (Sigma A7906)), and PGE1 (0.25 μg/ml) was added. After 5 min of resting the suspension was spun down for 15 min at 300 g. The supernatant was discarded and the pellets were carefully resuspended in TBS buffer (Tris-HCl, 50 mM (Fluka 93371); NaCl, 120 mM (Sigma S-3014); KCl, 2.7 mM (Sigma P-9541); CaCl₂, 0.05 mM (Sigma C-3306); MgCl₂×6 H₂O, 2 mM (Sigma M-2670); BSA, 0.1% (Sigma A7906); pH 7.4). The platelet count was adjusted to 2×10⁵ cells/μl, and the suspensions from individual donors were pooled at this stage. The platelets were allowed to rest for 30 min at room temperature before calcein AM (2.5 μM per 2×10⁵ cells/pi (Molecular Probes C-3099)) was added. This was followed by 15 min incubation in the dark. Cells were diluted to 5×10⁴ cells/μl and ReoPro (3 μg/ml (Centocor B. V., Leiden, N L)) was added, followed by a 10 min incubation period in the dark before adding the platelets to the assay plates.
(§2) 96 well plates (Greiner hb, black, clear bottom, F, 655097) were coated with human recombinant vWF-A1 domain (1.5 μg/well, AA 475-706, expressed in E. coli) in Tris buffer (pH 7.4; Tris-HCl, 25 mM; NaCl, 150 mM) and incubated for 1 h at room temperature. After washing the wells 3× with TBS, blocking buffer (TBS with 5% BSA) was added followed by an incubation for 1 h. The wells were washed again 3× with TBS before 200 μl TBS were added to each well, preventing them from drying out. TBS was flicked out and serial dilutions of the test compound were added. The washed and calcein AM labeled thrombocytes were added to the wells (2.5×10⁶ cells/well). Following an adhesion period of 1.5 h in the dark the wells were washed 3× with TBS. Measurement of fluorescence per well was performed in a SpectraMax M5 reader (Molecular Devices). From the raw data % inhibition and IC₅₀ values were calculated.

Test [2] deals with T1, blood platelet receptor glycoprotein …. The experiment in a line: inhibition of static adhesion of human platelets to coated vWF-A1; grade C = IC50 lower than 1 µM. As to the method: as §1, §2

Starred links: 1 amine or outer side, 2 acyl side, 3 side chain; linkers in the order of their positions; H or OH if unused. Non-standard residues stand in square brackets, D forms with d. NH(CH2)9CO = O=C(CCCCCCCCCN[*:1])[*:2]; Cha = N[C@@H](CC1CCCCC1)C(=O)O; Chg = N[C@H](C(=O)O)C1CCCCC1; Ac6c = NC1(C(=O)O)CCCCC1; Orn = NCCC[C@H](N)C(=O)O; Nva = CCC[C@H](N)C(=O)O; Dap = NC[C@H](N)C(=O)O; Ac3c = NC1(C(=O)O)CC1; Aib = CC(C)(N)C(=O)O; Ahp = NCCCCCCC(=O)O; Ava = NCCCCC(=O)O; GABA = NCCCC(=O)O

T1 sequence (P07359 17-652, chain 1 of 4): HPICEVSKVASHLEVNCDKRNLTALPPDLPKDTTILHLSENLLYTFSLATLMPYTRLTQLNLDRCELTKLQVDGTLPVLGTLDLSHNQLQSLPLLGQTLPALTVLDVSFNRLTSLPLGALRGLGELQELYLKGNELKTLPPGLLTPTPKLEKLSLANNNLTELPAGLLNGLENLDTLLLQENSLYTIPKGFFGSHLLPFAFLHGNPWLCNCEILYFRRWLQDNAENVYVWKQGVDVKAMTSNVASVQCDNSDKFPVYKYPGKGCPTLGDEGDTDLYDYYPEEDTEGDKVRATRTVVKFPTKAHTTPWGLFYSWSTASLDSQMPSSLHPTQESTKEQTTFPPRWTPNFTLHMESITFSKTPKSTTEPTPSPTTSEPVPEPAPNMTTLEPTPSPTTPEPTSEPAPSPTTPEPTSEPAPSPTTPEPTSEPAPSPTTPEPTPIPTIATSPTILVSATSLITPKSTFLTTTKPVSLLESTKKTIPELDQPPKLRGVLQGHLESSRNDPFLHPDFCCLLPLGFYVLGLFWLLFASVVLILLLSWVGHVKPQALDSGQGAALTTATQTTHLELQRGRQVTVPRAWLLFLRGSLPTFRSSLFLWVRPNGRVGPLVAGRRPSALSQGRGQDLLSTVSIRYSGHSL
T1 sequence (P13224 26-206, chain 2 of 4): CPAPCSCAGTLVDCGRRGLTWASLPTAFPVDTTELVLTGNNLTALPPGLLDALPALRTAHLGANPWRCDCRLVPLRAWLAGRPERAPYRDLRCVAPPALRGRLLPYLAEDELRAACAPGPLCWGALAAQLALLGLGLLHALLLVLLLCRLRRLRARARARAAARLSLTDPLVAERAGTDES
T1 sequence (P14770 17-177, chain 3 of 4): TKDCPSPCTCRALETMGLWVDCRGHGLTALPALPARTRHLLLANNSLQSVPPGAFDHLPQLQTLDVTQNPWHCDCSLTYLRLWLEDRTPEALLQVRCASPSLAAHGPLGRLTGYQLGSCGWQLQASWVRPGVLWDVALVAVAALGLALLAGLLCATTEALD
T1 sequence (P40197 17-560, chain 4 of 4): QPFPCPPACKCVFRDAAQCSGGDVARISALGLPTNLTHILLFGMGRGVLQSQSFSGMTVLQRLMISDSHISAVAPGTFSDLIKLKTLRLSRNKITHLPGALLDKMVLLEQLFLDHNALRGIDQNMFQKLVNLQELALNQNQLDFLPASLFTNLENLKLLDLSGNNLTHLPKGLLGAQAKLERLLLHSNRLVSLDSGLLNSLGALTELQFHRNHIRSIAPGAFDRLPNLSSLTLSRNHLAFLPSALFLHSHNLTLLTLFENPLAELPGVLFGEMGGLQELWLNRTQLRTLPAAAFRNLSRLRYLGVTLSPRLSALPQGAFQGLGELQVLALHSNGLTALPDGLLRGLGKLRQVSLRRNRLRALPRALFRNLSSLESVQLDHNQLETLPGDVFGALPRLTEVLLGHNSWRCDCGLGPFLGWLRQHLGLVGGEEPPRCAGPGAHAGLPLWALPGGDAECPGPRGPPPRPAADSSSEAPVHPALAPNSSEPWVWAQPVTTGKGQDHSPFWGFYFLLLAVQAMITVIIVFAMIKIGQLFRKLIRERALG

B1: Cyclo[Ac6-His-Asn-Leu-NH-(CH2)6-CO-Thr-Glu-Arg-Met-Ala] (peptide)
peptide: cyclo([Ac6c]HNL[Ahp]TERMA)
The term IC50 denotes the concentration at which inhibition is half-maximal. A low value points to greater potency in that assay. Regarding B1, the IC50 in test [1] fell in the range of 1 to 10 µM.

B2: Cyclo[Leu-His-Asn-Leu-Gly-NH-(CH2)4-CO-Thr-Glu-Arg-Met-Ala] (peptide)
peptide: cyclo(LHNLG[Ava]TERMA)
SMILES: CSCC[C@@H]1NC(=O)[C@H](CCCNC(=N)N)NC(=O)[C@H](CCC(=O)O)NC(=O)[C@H]([C@@H](C)O)NC(=O)CCCCNC(=O)CNC(=O)[C@H](CC(C)C)NC(=O)[C@H](CC(N)=O)NC(=O)[C@H](Cc2c[nH]cn2)NC(=O)[C@H](CC(C)C)NC(=O)[C@H](C)NC1=O
In turn, B2 showed an IC50 in test [1] of 1 to 10 µM.

B3: Cyclo[Leu-His-Asn-Leu-NH-(CH2)9-CO-Thr-Glu-Arg-Met-Ala] (peptide)
peptide: cyclo(LHNL[NH(CH2)9CO]TERMA)
SMILES: CSCC[C@@H]1NC(=O)[C@H](CCCNC(=N)N)NC(=O)[C@H](CCC(=O)O)NC(=O)[C@H]([C@@H](C)O)NC(=O)CCCCCCCCCNC(=O)[C@H](CC(C)C)NC(=O)[C@H](CC(N)=O)NC(=O)[C@H](Cc2c[nH]cn2)NC(=O)[C@H](CC(C)C)NC(=O)[C@H](C)NC1=O
Turning to B3, in test [1], the IC50 fell in the range of 1 to 10 µM.

B4: Cyclo[Leu-His-Asn-Leu-NH-(CH2)3-CO-Aib-Thr-Glu-Arg-Met-Ala] (peptide)
peptide: cyclo(LHNL[GABA][Aib]TERMA)
SMILES: CSCC[C@@H]1NC(=O)[C@H](CCCNC(=N)N)NC(=O)[C@H](CCC(=O)O)NC(=O)[C@H]([C@@H](C)O)NC(=O)C(C)(C)NC(=O)CCCNC(=O)[C@H](CC(C)C)NC(=O)[C@H](CC(N)=O)NC(=O)[C@H](Cc2c[nH]cn2)NC(=O)[C@H](CC(C)C)NC(=O)[C@H](C)NC1=O
Take B4: the IC50 in test [1] lay within 1 to 10 µM.

B5: Cyclo[Leu-His-Asn-Leu-Dpr-NH-(CH2)3-CO-Thr-Glu-Arg-Met-Ala] (peptide)
peptide: cyclo(LHNL[Dap][GABA]TERMA)
SMILES: CSCC[C@@H]1NC(=O)[C@H](CCCNC(=N)N)NC(=O)[C@H](CCC(=O)O)NC(=O)[C@H]([C@@H](C)O)NC(=O)CCCNC(=O)[C@H](CN)NC(=O)[C@H](CC(C)C)NC(=O)[C@H](CC(N)=O)NC(=O)[C@H](Cc2c[nH]cn2)NC(=O)[C@H](CC(C)C)NC(=O)[C@H](C)NC1=O
As for B5, the IC50 in test [1] was in the range of 1 to 10 µM.

B6: Cyclo[Leu-His-Asn-Leu-NH-(CH2)6-CO-Thr-Glu-Arg-Chg-Ala] (peptide)
peptide: cyclo(LHNL[Ahp]TER[Chg]A)
SMILES: CC(C)C[C@@H]1NC(=O)[C@H](C)NC(=O)[C@H](C2CCCCC2)NC(=O)[C@H](CCCNC(=N)N)NC(=O)[C@H](CCC(=O)O)NC(=O)[C@H]([C@@H](C)O)NC(=O)CCCCCCNC(=O)[C@H](CC(C)C)NC(=O)[C@H](CC(N)=O)NC(=O)[C@H](Cc2c[nH]cn2)NC1=O
Turning to B6, the IC50 in test [1] fell in the range of 1 to 10 µM.

B7: Cyclo[Leu-D-His-Asn-Leu-NH-(CH2)6-CO-Thr-Glu-Arg-Met-Ala] (peptide)
peptide: cyclo(L[dH]NL[Ahp]TERMA)
SMILES: CSCC[C@@H]1NC(=O)[C@H](CCCNC(=N)N)NC(=O)[C@H](CCC(=O)O)NC(=O)[C@H]([C@@H](C)O)NC(=O)CCCCCCNC(=O)[C@H](CC(C)C)NC(=O)[C@H](CC(N)=O)NC(=O)[C@@H](Cc2c[nH]cn2)NC(=O)[C@H](CC(C)C)NC(=O)[C@H](C)NC1=O
Molecule B7 had an IC50 in test [1] of 1 to 10 µM.

B8: Cyclo[Leu-Orn-Asn-Leu-NH-(CH2)6-CO-Thr-Glu-Arg-Met-Ala] (peptide)
peptide: cyclo(L[Orn]NL[Ahp]TERMA)
SMILES: CSCC[C@@H]1NC(=O)[C@H](CCCNC(=N)N)NC(=O)[C@H](CCC(=O)O)NC(=O)[C@H]([C@@H](C)O)NC(=O)CCCCCCNC(=O)[C@H](CC(C)C)NC(=O)[C@H](CC(N)=O)NC(=O)[C@H](CCCN)NC(=O)[C@H](CC(C)C)NC(=O)[C@H](C)NC1=O
In test [1], B8 returned an IC50 of 1 to 10 µM.

B9: Cyclo[Leu-His-Asn-Leu-NH-(CH2)6-CO-Asn-Glu-Arg-Met-Ala] (peptide)
peptide: cyclo(LHNL[Ahp]NERMA)
SMILES: CSCC[C@@H]1NC(=O)[C@H](CCCNC(=N)N)NC(=O)[C@H](CCC(=O)O)NC(=O)[C@H](CC(N)=O)NC(=O)CCCCCCNC(=O)[C@H](CC(C)C)NC(=O)[C@H](CC(N)=O)NC(=O)[C@H](Cc2c[nH]cn2)NC(=O)[C@H](CC(C)C)NC(=O)[C@H](C)NC1=O
In turn, B9 had an IC50 in test [2] below 1 µM.

B10: Cyclo[Leu-His-Asn-Leu-NH-(CH2)6-CO-Thr-Glu-Arg-Ala-Ala] (peptide)
peptide: cyclo(LHNL[Ahp]TERAA)
SMILES: CC(C)C[C@@H]1NC(=O)[C@H](C)NC(=O)[C@H](C)NC(=O)[C@H](CCCNC(=N)N)NC(=O)[C@H](CCC(=O)O)NC(=O)[C@H]([C@@H](C)O)NC(=O)CCCCCCNC(=O)[C@H](CC(C)C)NC(=O)[C@H](CC(N)=O)NC(=O)[C@H](Cc2c[nH]cn2)NC1=O
B10 gave an IC50 in test [2] below 1 µM.

B11: Cyclo[Leu-His-Asn-Leu-NH-(CH2)6-CO-Thr-Glu-Arg-Leu-Ala] (peptide)
peptide: cyclo(LHNL[Ahp]TERLA)
SMILES: CC(C)C[C@@H]1NC(=O)[C@H](C)NC(=O)[C@H](CC(C)C)NC(=O)[C@H](CCCNC(=N)N)NC(=O)[C@H](CCC(=O)O)NC(=O)[C@H]([C@@H](C)O)NC(=O)CCCCCCNC(=O)[C@H](CC(C)C)NC(=O)[C@H](CC(N)=O)NC(=O)[C@H](Cc2c[nH]cn2)NC1=O
As to B11, in test [2], the IC50 was below 1 µM.

B12: Cyclo[Leu-His-Asn-Leu-NH-(CH2)6-CO-Gln-Glu-Arg-Met-Ala] (peptide)
peptide: cyclo(LHNL[Ahp]QERMA)
SMILES: CSCC[C@@H]1NC(=O)[C@H](CCCNC(=N)N)NC(=O)[C@H](CCC(=O)O)NC(=O)[C@H](CCC(N)=O)NC(=O)CCCCCCNC(=O)[C@H](CC(C)C)NC(=O)[C@H](CC(N)=O)NC(=O)[C@H](Cc2c[nH]cn2)NC(=O)[C@H](CC(C)C)NC(=O)[C@H](C)NC1=O
Turning to B12, in test [2], the IC50 was below 1 µM.

B13: Cyclo[Leu-His-Asn-Leu-NH-(CH2)6-CO-Thr-Glu-Arg-Gln-Ala] (peptide)
peptide: cyclo(LHNL[Ahp]TERQA)
SMILES: CC(C)C[C@@H]1NC(=O)[C@H](C)NC(=O)[C@H](CCC(N)=O)NC(=O)[C@H](CCCNC(=N)N)NC(=O)[C@H](CCC(=O)O)NC(=O)[C@H]([C@@H](C)O)NC(=O)CCCCCCNC(=O)[C@H](CC(C)C)NC(=O)[C@H](CC(N)=O)NC(=O)[C@H](Cc2c[nH]cn2)NC1=O
In turn, B13 showed an IC50 in test [2] below 1 µM.

B14: Cyclo[Leu-His-Asn-Leu-NH-(CH2)6-CO-Thr-Glu-Arg-Met-Nva] (peptide)
peptide: cyclo(LHNL[Ahp]TERM[Nva])
SMILES: CCC[C@@H]1NC(=O)[C@H](CCSC)NC(=O)[C@H](CCCNC(=N)N)NC(=O)[C@H](CCC(=O)O)NC(=O)[C@H]([C@@H](C)O)NC(=O)CCCCCCNC(=O)[C@H](CC(C)C)NC(=O)[C@H](CC(N)=O)NC(=O)[C@H](Cc2c[nH]cn2)NC(=O)[C@H](CC(C)C)NC1=O
Take B14: the half-inhibitory concentration (IC50) in test [1] was 1 to 10 µM.

B15: Cyclo[Leu-His-Asn-Leu-NH-(CH2)3-CO-Ac3-Thr-Glu-Arg-Met-Ala] (peptide)
peptide: cyclo(LHNL[GABA][Ac3c]TERMA)
SMILES: CSCC[C@@H]1NC(=O)[C@H](CCCNC(=N)N)NC(=O)[C@H](CCC(=O)O)NC(=O)[C@H]([C@@H](C)O)NC(=O)C2(CC2)NC(=O)CCCNC(=O)[C@H](CC(C)C)NC(=O)[C@H](CC(N)=O)NC(=O)[C@H](Cc2c[nH]cn2)NC(=O)[C@H](CC(C)C)NC(=O)[C@H](C)NC1=O
The molecule B15 showed an IC50 in test [1] of 1 to 10 µM.

B16: Cyclo[Leu-His-Asn-Leu-NH-(CH2)6-CO-Thr-Glu-Arg-Cha-Ala] (peptide)
peptide: cyclo(LHNL[Ahp]TER[Cha]A)
SMILES: CC(C)C[C@@H]1NC(=O)[C@H](C)NC(=O)[C@H](CC2CCCCC2)NC(=O)[C@H](CCCNC(=N)N)NC(=O)[C@H](CCC(=O)O)NC(=O)[C@H]([C@@H](C)O)NC(=O)CCCCCCNC(=O)[C@H](CC(C)C)NC(=O)[C@H](CC(N)=O)NC(=O)[C@H](Cc2c[nH]cn2)NC1=O
The molecule B16 yielded a 50% inhibitory concentration (IC50) in test [2] below 1 µM.

B17: Cyclo[Cha-His-Asn-Leu-NH-(CH2)6-CO-Thr-Glu-Arg-Met-Ala] (peptide)
peptide: cyclo([Cha]HNL[Ahp]TERMA)
SMILES: CSCC[C@@H]1NC(=O)[C@H](CCCNC(=N)N)NC(=O)[C@H](CCC(=O)O)NC(=O)[C@H]([C@@H](C)O)NC(=O)CCCCCCNC(=O)[C@H](CC(C)C)NC(=O)[C@H](CC(N)=O)NC(=O)[C@H](Cc2c[nH]cn2)NC(=O)[C@H](CC2CCCCC2)NC(=O)[C@H](C)NC1=O
Turning to B17, in test [2], the IC50 was below 1 µM.
